Measured values reported in US20250388703A1.

Assays:
[1] = molecular target: Human CD3 E/D dimer (heterodimeric construct of human CD3 epsilon and CD3 delta domains, ACROBiosystems CDD-H52Wa) (human) (UniProt P07766); assay: column 'CD3 affinity (nM)'; assay not named on the sheet; BLI on human CD3 epsilon/delta-His per Example 1
DLL3 (human) = DLL3 (human) (UniProt Q9NYJ7); assay: not named on the sheet; Example 1 describes flow cytometry on CHO-K1 cells over-expressing DLL3
[2] = molecular target: Human CD3 E/D dimer (heterodimeric construct of human CD3 epsilon and CD3 delta domains, ACROBiosystems CDD-H52Wa) (human) (UniProt P07766); assay: BLI, CD3E/D-His on anti-His probes, 1:1 fit
[3] = molecular target: Human CD28-his (ACROBiosystems CD8-H52H3) (human) (UniProt P10747); assay: column 'CD28 affinity (nM)'; assay not named on the sheet; BLI on human CD28-His per Example 1

Human CD3 E/D dimer (heterodimeric construct of human CD3 epsilon and CD3 delta domains, ACROBiosystems CDD-H52Wa) (human), sequence (P07766 23-126 limits assumed, stated change not applied, chain 1 of 2): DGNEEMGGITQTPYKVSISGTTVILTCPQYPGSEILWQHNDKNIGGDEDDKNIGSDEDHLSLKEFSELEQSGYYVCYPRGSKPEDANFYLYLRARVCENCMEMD
Human CD3 E/D dimer (heterodimeric construct of human CD3 epsilon and CD3 delta domains, ACROBiosystems CDD-H52Wa) (human), sequence (P04234 22-105 limits assumed, stated change not applied, chain 2 of 2, further chain): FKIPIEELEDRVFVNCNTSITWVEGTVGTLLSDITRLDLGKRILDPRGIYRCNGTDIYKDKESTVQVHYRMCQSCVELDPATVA
DLL3 (human), sequence (Q9NYJ7 27-492 limits assumed): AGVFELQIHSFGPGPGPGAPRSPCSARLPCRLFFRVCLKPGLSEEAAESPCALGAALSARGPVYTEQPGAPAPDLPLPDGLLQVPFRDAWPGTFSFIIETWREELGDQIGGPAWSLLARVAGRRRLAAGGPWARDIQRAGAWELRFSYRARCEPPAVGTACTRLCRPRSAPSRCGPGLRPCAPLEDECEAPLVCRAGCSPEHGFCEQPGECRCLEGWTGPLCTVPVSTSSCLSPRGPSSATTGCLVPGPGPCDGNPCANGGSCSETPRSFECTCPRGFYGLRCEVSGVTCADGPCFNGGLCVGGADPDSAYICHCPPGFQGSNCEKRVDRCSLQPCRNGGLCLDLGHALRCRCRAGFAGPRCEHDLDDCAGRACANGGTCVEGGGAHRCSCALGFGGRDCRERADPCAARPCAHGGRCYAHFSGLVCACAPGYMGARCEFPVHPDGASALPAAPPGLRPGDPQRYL

Substance	Kd [1] [nM]	DLL3 affinity (DLL3 (human)) [nM]	Fold reduction in CD3 affinity compared to Tarlatamab [2] [fold]	Kd [2] [nM]	Kd [3] [nM]
AMG757 (Tarlatamab, BM) (bispecific antibody)	3	0.2	1	2	
328_BM (SAR443216)	22.9				4.32
